The DeepSol protein solubility set

Assay: soluble on expression in E. coli; label from the status in PepcDB or PDB records

Sequence | soluble on expression in E. coli
MHHHHHHAMGIPGHAFSKIKVKQPVVELDGDEMTRIIWDKIKKKLILPYLDVDLKYYDLSVESRDATSDKITQDAAEAIKKYGVGIKCATITPDEARVKEFNLHKMWKSPNGTIRNILGGTVFREPIVIPRIPRLVPRWEKPIIIGRHAHGDQYKATDTLIPGPGSLELVYKPSDPTTAQPQTLKVYDYKGSGVAMAMYNTDESIEGFAHSSFKLAIDKKLNLFLSTKNTILKKYDGRFKDIFQEVYEAQYKSKFEQLGIHYEHRLIDDMVAQMIKSKGGFIMALKNYDGDVQSDIVAQGFGSLGLMTSILVTPDGKTFESEAAHGTVTRHYRKYQKGEETSTNSIASIFAWSRGLLKRGELDNTPALCKFANILESATLNTVQQDGIMTKDLALACGNNERSAYVTTEEFLDAVEKRLQKEIKSIE | soluble
GEEGNSSELPLSAEDAKKLTELAENVLQGWDVQAEKIDVIQGNQMALVWKVHTDSGAVCLKRIHRPEKKALFSIFAQDYLAKKGMNVPGILPNKKGSLYSKHGSFLFVVYDWIEGRPFELTVKQDLEFIMKGLADFHTASVGYQPPNGVPIFTKLGRWPNHYTKRCKQMETWKLMAEAEKEDPFSQLYLQEIDGFIEDGLRIKDRLLQSTYVPWTEQLKKSPNLCHQDYGTGNTLLGENEQIWVIDLDTVSFDLPIRDLRKMIIPLLDTTGVWDDETFNVMLNAYESRAPLTEEQKQVMFIDMLFPYELYDVIREKYVRKSALPKEELESAFEYERIKANALRQLI | soluble
MSLKRLNCRRKGIRVRILAIDTSNQTLSIAVCENQKILGSYTATVKRNHSLTLMPAIDYLMSQLNLAPTAIDRFVVAEGPGSYTGLRLGVTTAKTLAYTLKKELVGISSLQTLAANCVGQTGLIVPLFDARRKNVYAGAYRFVNGVWQNELPDQHISLRELLEQLKNEPNLFFVGEDVEKFTEEIAQIIPHGEICDVPQWQIPNAAVLAALGSVAEPVENVHGFLPAYLKKVEAEENWLKTHTPNGESYVEKLEGHHHHHH | soluble
MSLATLKDVAELAGVGLSTASRAISGKGPVSADAAARVKAAIAELNFRPSSIGRAMATQQLGIIGLFVPTFFGSYYGTILKQTDLELRAVHRHVVVATGCGESTPREQALEAVRFLIGRDCDGVVVISHDLHDEDLDELHRMHPKMVFLNRAFDALPDASFCPDHRRGGELAAATLIEHGHRKLAVISGPFTASDNVERLDGFFDELARHGIARDSVPLIESDFSPEGGYAATCQLLESKAPFTGLFCANDTMAVSALARFQQLGISVPGDVSVIGYDDDYSAAYAAPALTSVHIPTAELTQNAVRWLINQCYGTKWEIFREFPVTVSMRASVAREGHHHHHH | soluble
MAHHHHHHMANAELVDAGCFITQMNELLLIDPLYLNCAMTNYCNSYLSGKEELLPRERLNGIYFKNAKPGLWSSFAIRENSQAHLKKTAKQETETDAANRNDKNTYNNIRNEMVLSFVCFNNTNYMHQYLTVEEVDKLHWERMEPSEGHPGVGPTDKCSSTVDGDSKNEKVANFHNDRSELLPLENYFTNVLTIESGQAGLFCIDSIKNSADLLFQKHGMKNISSREQLDILFNQNMNDLYPWFDQICNLTMTSSVAVVDFMGMPIGCVCLSSSDCVVNYLCEVVRDEVTDEVWAIRVNFLAPLK | not soluble
MSLDGMPAKQQHNNTGESVELHFHYPIKGKQEPKNSHLVVLIEPKIEINKVIPESYQKEFEKSLFLQLSSFLERKGYSVSQFKDASEIPQDIKEKALLVLRMDGNVAILEDIVEESDALSEEKVIDMSSGYLNLNFVEPKSEDIIHSFGIDVSKIKAVIERVELRRTNSGGFVPKTFVHRIKETDHDQAIRKIMNQAYHKVMVHITKELSKKHMEHYEKVSSEMKKRKEGHHHHHH | soluble
MNKVAQYYRELVASLNERLRNGERDIDALVEQARERVIKTGELTRTEIDELTRAVRRDLEEFAMSYEESLKEESDSVFMRVIKESLWQELADITDKTQLEWREIFQDLNHHGVYHSGEVVGLGNLVCEKCHFHLPIYTPEVLTLCPKCGYDQFQRRPFEP | not soluble
MVDLKRLRQEPEVFHRAIREKGVALDLEALLALDQEVQELKKRLQEVQTERNQVAKRVPKAPPEEKEALIARGRALGEEAKRLEEALREKEAQLEALLLQVPLPPWPGAPVGGEEANREIKRVGSPPEFSFPPLDHVALMEKNGWWEPRISQVSGSRSYALKGDLALYELALLRFAMDFMARRGFLPMTLPSYAREKAFLGTGHFPAYRDQVWAIAETDLYLTGTAEVVLNALHSGEILPYEALPLRYAGYAPAFRSEAGSFGKDVRGLMRVHQFHKVEQYVLTEASLEASDRAFQELLENAEEILRLLELPYRLVEVATGDMGPGKWRQVDVEVYLPSEGRYRETHSCSALLDWQARRANLRYRDPEGRVRYAYTLNNTALATPRILAMLLENHQLQDGRVRVPKALVPYMGKEVLEPCG | soluble
GMGVNMRAETESRIFSVDEYVRPSNGEPIRSVVLETNDSVVVVWHAHPGQEIASHVHPHGQDTWTVISGEAEYHQGNGIVTHLKAGDIAIAKPGQVHGAMNSGPEPFIFVSVVAPGNAGFALAEK | soluble
MSLESPQTQSEISIHQLVVGKPANDGNIPAQCELLRCSLQEGMDILLWRGHFARPETLQLHDDLGRINFSCILEGTSRFAIQGLRRHTDWELARNRHYITHTPDCRGSASYCGRFESITLSFSPETLALWVPDISAVIKNKIDSHCCCQQQRCNAETHLTAQALRHALMRMHGGFSHEQKPSTLWLQGQSLVMLSLVLDEHREDASCLSCHFNPMERQKLLRAKDLLLADLTQAPGVAELARESGLSVLKIKRGFRVLFNNSVYGLFQAERMQEARRRLANGNTSVMTVAADLGYANASHFSAAFQKQFGVTPSTFKRGEGHHHHHH | not soluble
PLGSEEEEEDAGLVAEAEAVAAGWMLDFLCLSLCRAFRDGRSEDFRRTRNSAEAIIHGLSSLTACQLRTIYICQFLTRIAAGKTLDAQFENDERITPLESALMIWGSIEKEHDKLHEEIQNLIKIQAIAVCMENGNFKEAEEVFERIFGDPNSHMPFKSKLLMIISQKDTFHSFFQHFSYNHMMEKIKSYVNYVLSEKSSTFLMKAAAKVVESKR | soluble
MNLEMLESQPVPEIDTLREEIDRLDAEILALVKRRAEVSKAIGKARMASGGTRLVHSREMKVIERYSELGPDGKDLAILLLRLGRGRLGH | soluble
MADLQKNFQTSFRDAMASCAAGVHVITTDGAAGRYGITMTAVAPVTDEPPTVMLCINRSARIIPILSENGSLCINTLADEHQDVAEHFAGLTGLSPEERFAYHIWHRGKTGQLEIEGALAHLHGHIVGKHEIGTHFVFYVRLDEIKNCGCKRPALLYFRRQFRFLD | not soluble
WQYMFYSALSIFVSGKVTDAVYTKQKKMQVMIVTKNPDRVVDEIQKKMRRGITIIHEAEGAYRHDRQTVLLTIVTRFELPSLEAAMKESDPNAFVSISDNVKILGRFYEEDYK | not soluble
GPGSMGEGRIRCYYEVLEVERKATYDEIRTAYKKKSLQYHPDKNYGNQEEAAMRFKEVQNAYSILSDADERAWYDSHREAILRGGDGTGDLDELNLYEYFTAGCFDGFDDGESGFYTVYRKVFDILIEEESDYDSRAKLWPGFGTSTSDWADVQKFYGYWRNFSTYKTFTWKDEYKVNEMEDRYSRRMAGRINSKARDGAKKEYVRTVQSLAQFVYRRDPRVKAELERQEKEDQAKREERERQEIERLKRRREANERVWAEAAEREAREEAERAARGEAMDGSILEMLYEKERQTKEMMRGSGGVGAHTAGFAMLGGDDDEAVTVFNCPACKKQFKSENQYKEHVRSNKHKTKLKQLAAKGTDVAALMGEKVEGGSGGTEE | soluble
MTTRILTGITPTGTPHLGNYAGAIRPAILASRRSDVDSFYFLADYHALIKCDDPARIQRSRLEIAATWLAGGLDVERATFYRQSDIPEIPELTWLLTCVSAKGLLNRAHAYKAAVDRNVEAGEDPDAGVTMGLYSYPVLMAADILMFNAHKIPVGRDQVQHVEMARDIGQRFNHLFGNGREFFVLPEAVIEENVATLPGLDGRKMSKSYDNTIPLFSPSRQLKDAIARIVTDSRAPGEPKDPDSSHLFLLYSAFASAEQVAAFRQELLEGLAWGEAKQRLFQLLDNELGEARERYQALIAKPDDIEDILLAGAAKARRIATPFIAELREAVGLRSLREPLKSAESGKKKAAKAARLVSFRDDDGSFRFRLLDAAGEQLLLSRAFADGKAAGAVSKRLLAGETADLRAEGNAFGLWLDGEAVAQSPAFADAAARDAAIERTREALAPQ | not soluble
MGSDKIHHHHHHMMKSRDKKDLILESIIQTYLLDNAPIGSNELNSNLCIPASTIRVYLKRLSDEGLITQLHISSGRIPTILTMQNYWQNFWEKEQDKNIHIKNESFLKELSKEFEIYCLVYGGRSLVLKEVLDLNTKFIVLDFEDEELVLKYEKEAWNFLQSLIGLDLSSIEKIALRVHFIDLVEKIASLRQNLICYRSNEERAYQIYQNDEFVKLLDCQIHRHFKESLEFEPLFKEGFMGLKVDAQFLGEDVNIILAGSVYTDYKKILQYIKEAA | not soluble
MGSDKIHHHHHHKGHRVTGSDANVYPPMSTQLEEQGIELIQGFDPSQLGDAGSYPDIVVIGNAMSRGNPCVEAVLNLGIPYTSGPQFLVDHILPERWVLAVSGTHGKTSTSSMLAWILEDCGYQPGFLIGGVPQNFGVSARLGESAFFVVEADEYDSAFFDKRSKFVHYHPRTLVINNLEFDHADIFADLAAIQKQFHHQIRTVPGQGKVIWPADSHAVKQTIDMGCWSEQETYHSSEVTKGWHAKALSDDCHEFEVFFDGQSQGVLDWALIGQHNIENAVMAIAAARHVGVAPSAAIDALARFVPPKRRLELLDTVNGVSVYDDFAHHPTAIATTIKGMRAKVGQTKITIVLEPRSNTMKSGVHKDTLAHSMLQADEAFLYQADTIDWNMKEAMEAAVIPVTVLHQIDDVVAKVAASAKPGDTIVVMSNGGFGGLHKKLLAALAVSPQLVEQAH | not soluble
MSLGKPLIALGLEGSANKLGVGIILHDTNGSAKILANVRHTYITPPGQGFLPSDTAKHHRAWIIPLIKQAFAEAKISFKDIDCICFTKGPGIGAPLNSVALCARMLSLIHKKPLVAVNHCIGHIEMGREITGAQNPVVLYVSGGNTQVIAYSEKKYRIFGETLDIAIGNCLDRFARIIGLSNAPSPGYNIMQEAKKGKRFIELPYTVKGMDCSFSGLLSGVEAAATELLDPKNPSSVTKQDLCYSLQETGFAMLVEITERAMAHIRADSVLIVGGVGCNERLQQMMAEMSSDRGADVFSTDERFCIDNGIMIAQAGLLAYKTGDRCAVAESTITQRYRTDDVYISWRDEGHHHHHH | soluble
DVFVYGSFQEPSVVNLILECSPVMVPAQLHGYHVYRLKGRLHACISPSENGLINGKILTGLTDSQLENLDMIEGSEYVRKTVEVVLTDTSEKKQVETYVWANKDDPNLYGEWDFEEWRRLHMDKFIEASTKFIEWKKNPDG | not soluble
MGSDKIHHHHHHMNPKKLKQLKKRVKKQAGAPYIQQLMKYRDLFKDDPQILVLINNVLESDRLLAAGLAPQQLPVLEIPDDFQDHLFERINQQYAMGDPAGDAAWNQLSAALPKVDQLLRNFRDYIEDQYGMWAYISAPFLKDLADFTGSAPVLEVMAGNGYISKGLKRLHPGQPIYTTDSKDWTHETGNQTGRHPVTTIEALDAVSAFNKYAATIKYVIMAWSPDKLTIDWDLLQAMRQSPYDIPLIVIGEKYGATGSKQFWDHANYQDNEAVTKLNAHFRPFDLIHDHVYVVR | not soluble
MSQAFAQPLSGYQIGDEIKNFSMLNVTNQTVLSLTDYNDQKVVVIIFTNNNCAYAKLYEQRIANLAKQYNTSGVAFLLVNPSVSNSDKFETIEAMRKKIQNDKSLYPYLADTTQSLAISFGVQRLPDAFVLKKMETSFRLVYKGSIDDNPQSAEDVSNRFLSDAISAMVLNRSIKVADTRAVGCLLKPY | not soluble
